Measured values published in US7272508B2, “Small molecule mimetics of erythropoietin” (The Scripps Research Institute, priority 1996, dated 2007).
Each block holds one molecule with its values, some of them ahead of it. Positions of bridges follow the written chain, without caps; N, C: chain ends. No end group written: not given here.

B1: EPO binding protein (EBP), extracellular fragment of human EPO receptor, residues 1-225 (receptor, UniProt P19235 25-249, looked up)
chain: APPPNLPDPKFESKAALLAARGPEELLCFTERLEDLVCFWEEAASAGVGPGNYSFSYQLEDEPWKLCRLHQAPTARGAVRFWCSLPTADTSSFVPLELRVTAASGAPRYHRVIHINEVVLLDAPVGLVARLADESGHVVLRWLPPPETPMTSHIRYEVDVSAGNGAGSVQRVEILEGRTECVLSNLRGRTRYTFAVRARMAEPSFGGFWSAWSEPVSLLTPSDLD
notes: range 1-225; they probably count on the mature receptor without signal peptide; Two EBP molecules stand in the asymmetric unit with two peptides; also called EBP1; EBP2

Key:
EPO responsive cells = assay: phosphorylation events and cell cycle progression in EPO responsive cells; assay type: cell-based
[1] = molecular target: T1, EBP (extracellular fragment of human EPO receptor, residues 1-225) (Homo sapiens, UniProt P19235); assay: DPDPB crosslinking of EBP in solution (peptide-dependent dimerization); assay type: biochemical; conditions: co-incubation of EMP1, DPDPB and EBP; no significant dimer in the absence of peptide
T1 construct: consisting of residues 1-225, was expressed in Escherichia coli; made in house; host or cells: Escherichia coli
T1 sequence (P19235 25-249): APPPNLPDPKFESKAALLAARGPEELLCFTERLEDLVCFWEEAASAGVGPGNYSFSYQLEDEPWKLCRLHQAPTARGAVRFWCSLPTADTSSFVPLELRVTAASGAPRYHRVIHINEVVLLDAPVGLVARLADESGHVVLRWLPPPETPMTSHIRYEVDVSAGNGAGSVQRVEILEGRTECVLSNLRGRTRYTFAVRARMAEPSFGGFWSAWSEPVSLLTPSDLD
Protocol: To explore the interaction of EMP1 with EBP in solution we employed a bifunctionalsulphydryl reactive crosslinker DPDPB, [1,4-di-(2′-pyridyldithio propionamido) butane], in an attempt to stabilize a peptide-dependent dimeric structure. […] A dimeric EBP product is formed by co-incubation of EMP1, DPDPB and EBP. The amount of dimeric product increases with peptide concentration and no significant dimer product is observed in the absence of peptide. DPDPB-crosslinked products formed through disulfide-exchange reactions should be readily reversible by reduction as is seen for the covalently-linked EMP1-mediated dimer. […] The Cys^181 residues in D2 of the EBP dimer are 20.7 Å apart (Sγ-Sγ distance) which approximates the 16 Å length (and approximately 2 Å in bond length at each end) of the DPDPB cross-linker.

[2] = tested on: cell lines engineered to be responsive to EPO; assay: cellular proliferation of cell lines engineered to be responsive to EPO; assay type: cell-based
[3] = tested on: nascent red blood cell production; assay: in vivo assays of nascent red blood cell production; conditions: mice; two different in vivo assays of nascent red blood cell production
EPO receptor = molecular target: T2, EPO receptor (Homo sapiens, UniProt P19235); assay: receptor binding assays, competition with EPO
T2 sequence (P19235 25-508): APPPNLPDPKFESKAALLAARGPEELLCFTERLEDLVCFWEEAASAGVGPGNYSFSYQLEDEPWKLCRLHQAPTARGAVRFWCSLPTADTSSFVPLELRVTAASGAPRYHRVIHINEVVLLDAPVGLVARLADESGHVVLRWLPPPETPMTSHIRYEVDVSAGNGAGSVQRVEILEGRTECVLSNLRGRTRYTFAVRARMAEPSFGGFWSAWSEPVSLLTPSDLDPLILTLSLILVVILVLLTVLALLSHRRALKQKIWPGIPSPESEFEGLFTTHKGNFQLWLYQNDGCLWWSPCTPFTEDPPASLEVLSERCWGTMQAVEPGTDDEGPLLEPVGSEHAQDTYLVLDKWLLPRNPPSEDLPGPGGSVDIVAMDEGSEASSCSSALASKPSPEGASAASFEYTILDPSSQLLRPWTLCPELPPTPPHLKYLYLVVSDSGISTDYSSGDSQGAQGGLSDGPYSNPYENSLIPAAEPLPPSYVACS

[4] = molecular target: the molecule itself; assay: DPDPB sulphydryl crosslinking of EBP in solution
[5] = molecular target: B1; assay: DPDPB crosslinking in solution; dimeric product increases with peptide concentration

competition with EPO in receptor binding assays (EPO receptor): competes with EPO
Molecule: GGTYSCHFGPLTWVCKPQGG (disulfide 6-15 (inferred)) [EMP1]
cascade of phosphorylation events and cell cycle progression (EPO responsive cells): induce a similar cascade of phosphorylation events and cell cycle progression
formation of dimeric EBP product [1]: mediates formation of a soluble EBP dimer complex in solution
induction of cellular proliferation [2]: induces cellular proliferation
erythropoietic effects [3]: significant erythropoietic effects

Molecule: B1
binding result [4]: no binding

binding result [5]: binds
B2: EMP1 (EPO Mimetic Peptide 1) (peptide)
peptide: GGTYSCHFGPLTWVCKPQGG
modifications: disulfide 6-15
notes: also called RWJ 61233; peptide-2
